Measured values from patent US20220047684A1, “ENZYMES AND METHODS FOR PREVENTING AND TREATING […] IN ANIMALS” (Ecto Development Corporation, priority 2020, published 2022).

Key:
[1] = Characterisation of purified recombinant PytH2 carboxylesterase on p-nitrophenyl esters; format: biochemical
Experimental: Protein is a carboxylesterase from Sphingobium wenxiniae produced by PytH2 recombinant, expressed in E. coli BL21 (DE3) IUBMB: 3.1.1.88 CAS: 9016-18-6. The Chemical Composition of the carboxylesterase has Chemical purity: >90% buffer of 10 mM phosphate (pH 7.4), 2.7 mM KCI, 137 mM NaCI. Post translational procedures produced in a protease deficient E. coli strain and optimized for synthesis. The protein Appearance: clear, colorless solution:
Unit definition: One unit is defined as the amount of enzyme required to generate 1 μmol/min of 4-p-nitrophenol from 4-nitrophenyl-L-acetate at 30° C. and pH 7.4. Specific activity: 15±3 μ/mg
The enzyme is also deactivated by surfactant compounds such as SDS.
An esterase gene (PytH2) of Sphingobium wenxiniae containing an open reading frame (ORF) of 873 bp. The ORF of PytH2 was expressed in Escherichia coli, under the control of the promoter T7. […] E. coli BL21(DE3)/pET28 containing PytH2 expressed a novel 31.4-kDa protein corresponding to PytH2 in an N-terminal fusion with the His-tag peptide. The recombinant Sphingobium wenxiniae PytH2 protein was purified to electrophoretic homogeneity in a one-step affinity chromatography procedure on Ni-NTA Resin. The optimum pH and temperature of the purified enzyme were 7.0 and 37 degrees C., respectively. […] It was also active on pNP-butyrate(C(4) and pNPcaproate(C(6)).

[2] = Biological permethrin assay for esterase activity (activity units of esterases); format: biochemical; settings: esterases used in reaction mix for scud assay
Experimental: A biological permethrin assay was performed for control, and three esterases pnbA, pytH2 and MsE1. The sensitivity of scuds (Hyalella Azteca) to permethrin was tested with three esterases pnbA, pytH2 and MsE1.
For control and each of the three esterases pnbA, pytH2 and MsE1, ten scuds were exposed to permethrin and one of pnbA, pytH2 or MsE1.
• 100 μL 50% MeOH in PBS • 0.2 μg/μL
(§1) • 37 degree C. • 18 hr • Shanking 1000 rpm Transferred 20 μL rxn mix [4 μg] to 100 mL [containing 10 scuds] At time, 24 h and 48 h the ten scuds were scored: A=Alive and Moving actively BA=Barely Alive—Difficulty swimming away; only legs are moving D=Dead—Not moving at all The results of which are shown in FIGS. 8 and 9.

[3] = Order of pyrethroid hydrolysis efficiency of PytH2; format: biochemical; settings: pyrethroid substrates
Source text: Activity of the enzyme: In order of hydrolysis efficiency: transpermethrin>cis-permethrin>fenpropathrin>trans-cypermethrin>cis-cypermethrin>cyhalothrin>fenvalerate>deltamethrin>bifenthrin.

[4] = Deltamethrin degradation, HPLC; format: biochemical; settings: method as for permethrin; FIG. 5
Source text: Using the method and instruments described above for permethrin, 40% of deltamethrin was degraded by pPytH2, PytH2 esterase as shown in FIG. 5.

scuds (Hyalella azteca) = assay: Scud bioassay: scuds exposed to permethrin with or without enzyme, kill counts; format: in vivo; settings: scuds exposed to permethrin plus degrading enzyme versus permethrin alone
Experimental: A standard of permethrin (CAS Number […]) was prepared and analyzed by HPLC as a control, then different concentrations of enzymatic solution were added to the standard to find an effective concentration (of pPytH2) needed to degrade the permethrin. After degradation was confirmed through HPLC analysis by the qualification and quantitation of permethrin hydrolysis byproducts, a bioassay was performed with crustaceans (scuds), who are also highly sensitive to pyrethroid toxicity. In the bioassay, scuds were exposed to two different environments. Permethrin was added to the first environment to get a scud kill count without the presence of the enzyme as a control and the next environment was evaluated by adding both permethrin and the degrading enzyme to the scud environment and kill counts were compared.
The next step was to test the enzymatic hydrolysis of permethrin in feline blood (cat serum). […] After the cat serum control was analyzed three different concentrations of the enzyme were introduced to the cat serum control and then analyzed by HPLC. […]
as §1

[5] = Cypermethrin degradation, HPLC; format: biochemical; settings: 50 ppm cypermethrin in 1 mL PBS with 10 μL pPytH2; 15 minutes at 37 C, 300 rpm
Experimental: 50 ppm of cypermethrin was placed in 1 mL PBS with 10 μL pPytH2, PytH2 and reacted for 15 minutes at 37 C with shaking at 300 rpm. HPLC was run on the sample after being diluted 1:1 MeOH using instrument method described above for permethrin for 10 minutes.

B1: E3: carboxylesterase PytH2 (pytH) from Sphingobium wenxiniae, amino acid SEQ. ID No. 3, DNA SEQ. ID No. 6; recombinant, His-tagged (protein, listed as Sphingobium wenxiniae)
chain: MTVTDIILIHGALNRGACYDAVVPLLEARGYRVHAPDLTGHTPGDGGHLSVVDMEHYTRPVADILARAEGQSILLGHSLGGASISWLAQHHYDKVAGLIYLTAVLTAPGITPETFVLPGEPNRGTPHALDLIQPVDEGRGLQADFSRLERLREVFMGDYPGEGMPPAEQFIQTQSTVPFGTPNPMEGRALEIPRLYEALDDVVIPIAVQRQMQKEFPGPVAVVSLPASHAPYYSMPERLAEAIADFADAPAEYRQTATKAGPDRPAGADGGRADRADLP
modifications: His tag
notes: ID No. 6; recombinant, His-tagged
[1]
  cofactor requirement for activity: does not require a cofactor
  stability of the enzyme: quite stable
[1]; after incubation at 70° C.
  activity after heat incubation: inactive
[1]; metal ions, can recover activity
  effect of metal ions on the enzyme: strongly inhibited
[1]; one unit = 1 μmol/min 4-p-nitrophenol from 4-nitrophenyl-L-acetate at 30° C. and pH 7.4
  Specific activity: 15±3 μ/mg
[1]; pNP-acetate
  substrate preference among pNP (p-nitrophenyl) esters: pNP-acetate (C(2)): best substrate
[1]; pNP-butyrate(C(4))
  activity on pNP-butyrate: active
[1]; pNPcaproate(C(6))
  activity on pNPcaproate: active
[1]; purified enzyme
  optimum pH: 7.0
  optimum temperature: 37 degrees C.
[1]; surfactant compounds such as SDS
  effect of surfactant compounds on the enzyme: deactivated
[2]
  Activity units: 31.6
[3]
  order of hydrolysis efficiency: transpermethrin>cis-permethrin>fenpropathrin>trans-cypermethrin>cis-cypermethrin>cyhalothrin>fenvalerate>deltamethrin>bifenthrin
[4]
  deltamethrin degraded: 40%
Scuds (Hyalella azteca)
  effect on permethrin in scud bioassay: hydrolyzed the toxic permethrin molecule and degraded permethrin
[5]
  Cypermethrin degradation rate: 12.69 nmol/min/μg pPytH2
